Article doi:10.1101/273615 (bioRxiv, 2018)
Changes are numbered by the printed parent chain. Names and notes keep the numbering of the source.

Assays:
Assay in all cases: ITC
[1] = target: RBPJ (53-474) A284V (Mus musculus, UniProt P31266 53-474, A284V)
[2] = target: Mus musculus core RBPJ, residues 53-474 (Mus musculus, UniProt P31266 53-474)
[3] = target: RBPJ (53-474) F261A (Mus musculus, UniProt P31266 53-474, F261A)
[4] = target: RBPJ (53-474) L388A (Mus musculus, UniProt P31266 53-474, L388A)
Chain of RBPJ (53-474) L388A (P31266 53-474 L388A): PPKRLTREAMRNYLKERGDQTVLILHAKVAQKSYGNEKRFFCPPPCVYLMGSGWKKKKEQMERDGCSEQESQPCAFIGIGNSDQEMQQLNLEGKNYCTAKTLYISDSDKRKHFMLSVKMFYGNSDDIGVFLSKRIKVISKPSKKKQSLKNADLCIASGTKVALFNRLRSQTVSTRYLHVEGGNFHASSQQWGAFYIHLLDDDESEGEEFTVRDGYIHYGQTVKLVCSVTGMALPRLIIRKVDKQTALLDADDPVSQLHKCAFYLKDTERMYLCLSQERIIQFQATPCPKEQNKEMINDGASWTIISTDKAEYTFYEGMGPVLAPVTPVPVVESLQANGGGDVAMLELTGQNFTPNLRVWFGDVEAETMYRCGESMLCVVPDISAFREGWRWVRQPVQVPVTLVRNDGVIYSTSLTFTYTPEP

Chain of Mus musculus core RBPJ, residues 53-474 (P31266 53-474): as the sequence (P31266 53-474 L388A) above, with A336L counted along it
Chain of RBPJ (53-474) F261A (P31266 53-474 F261A): as the sequence (P31266 53-474 L388A) above, with F209A, A336L counted along it
Chain of RBPJ (53-474) A284V (P31266 53-474 A284V): as the sequence (P31266 53-474 L388A) above, with A232V, A336L counted along it

B1: SMT3-SHARP, residues 2776-2833 (RBPJ-interacting region) (domain or fragment, UniProt Q96T58 2802-2859, looked up)
chain: SGAGLRVNTSEGVVLLSYSGQKTEGPQRISAKISQIPPASAMDIEFQQSVSKSQVKPD
fold reduction in binding against native RBPJ [1]: ~50 fold | Kd [2]: ~5 nM | stoichiometry N [2]: 1 | fold reduction in binding against native RBPJ [3]: ~45 fold | fold reduction in binding against native RBPJ [4]: ~70 fold

B2: SMT3-SHARP (2776-2833) V2789A (domain or fragment, UniProt Q96T58 2802-2859, looked up)
chain: B1 chain with V14A
fold reduction in binding against native SHARP [2]: > 10 fold

B3: SMT3-SHARP (2776-2833) Y2793A (domain or fragment, UniProt Q96T58 2802-2859, looked up)
chain: B1 chain with Y18A
fold reduction in binding against native SHARP [2]: > 20 fold

B4: SMT3-SHARP (2776-2833) L2791A (domain or fragment, UniProt Q96T58 2802-2859, looked up)
chain: B1 chain with L16A
fold decrease in binding against native SHARP [2]: > 350 fold

B5: SMT3-SHARP (2776-2833) I2811A (domain or fragment, UniProt Q96T58 2802-2859, looked up)
chain: B1 chain with I36A
fold reduction in binding against native SHARP [2]: > 60 fold

B6: SMT3-SHARP (2776-2833) K2807A (domain or fragment, UniProt Q96T58 2802-2859, looked up)
chain: B1 chain with K32A
fold reduction in binding against native SHARP [2]: ~6 fold
